# Data reported in patent publication US20080124335A1 (NATIONAL CEREBRAL AND CARDIOVASCULAR CENTER, published 2008).
# No end group written: not given here.
# T1: human FM-3 (human, UniProt Q9HB89 24-426)
# T1 sequence: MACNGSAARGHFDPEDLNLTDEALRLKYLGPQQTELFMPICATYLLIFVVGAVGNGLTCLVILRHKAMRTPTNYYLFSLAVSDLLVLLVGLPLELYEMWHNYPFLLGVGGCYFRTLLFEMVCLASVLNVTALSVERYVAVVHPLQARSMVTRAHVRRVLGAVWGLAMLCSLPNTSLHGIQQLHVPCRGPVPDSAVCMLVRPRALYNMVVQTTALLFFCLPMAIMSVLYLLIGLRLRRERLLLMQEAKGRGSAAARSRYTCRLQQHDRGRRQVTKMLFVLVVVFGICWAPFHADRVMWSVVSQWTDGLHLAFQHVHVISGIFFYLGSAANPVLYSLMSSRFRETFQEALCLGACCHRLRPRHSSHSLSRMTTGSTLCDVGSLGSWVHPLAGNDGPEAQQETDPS
# Assays:
# human TGR1 [1] = target: T2, human TGR1 (human, UniProt Q9GZQ4 1-415); experiment: radioligand competition: crude membrane fraction (10 µg) of CHO cells expressing human TGR1, 50 pM [^125I-Tyr^0]-NMS, filtration
# Description: (§1) The receptor binding test was conducted by an improvement of the Gottschall, et al. method (Gottschall, P. E., et al., Endocrinology, 127, 272, 1990). A crude cell membrane fraction was prepared from human FM-3 or human TGR1-expressed CHO cells. Also, human NMS ([Tyr⁰]-NMS) added with Tyr at the N terminus was radioactively labeled with ¹²⁵I and then purified on HPLC. The crude cell membrane fraction (10 μg) and the radiolabeled peptide (50 pM) were reacted at room temperature for 2 hours in a buffer supplemented with 0.05% CHAPS and 1% BSA in the presence of a competitive peptide. The reaction product was filtered to separate the bound from the unbound radiolabeled peptide. The radioactivity was measured with a TopCount liquid scintillation counter (Packard).
# human TGR1 [2] = target: T2, human TGR1; experiment: cell-based or functional assay
# human FM-3 [3] = target: T1, human FM-3; experiment: cell-based or functional assay
# human FM-3 [4] = target: T1, human FM-3; experiment: radioligand competition: crude membrane fraction (10 µg) of CHO cells expressing human FM-3, 50 pM [^125I-Tyr^0]-NMS, filtration
# Description: as §1
# T2 sequence (Q9GZQ4 other isoform, or with tags, fused parts or gaps): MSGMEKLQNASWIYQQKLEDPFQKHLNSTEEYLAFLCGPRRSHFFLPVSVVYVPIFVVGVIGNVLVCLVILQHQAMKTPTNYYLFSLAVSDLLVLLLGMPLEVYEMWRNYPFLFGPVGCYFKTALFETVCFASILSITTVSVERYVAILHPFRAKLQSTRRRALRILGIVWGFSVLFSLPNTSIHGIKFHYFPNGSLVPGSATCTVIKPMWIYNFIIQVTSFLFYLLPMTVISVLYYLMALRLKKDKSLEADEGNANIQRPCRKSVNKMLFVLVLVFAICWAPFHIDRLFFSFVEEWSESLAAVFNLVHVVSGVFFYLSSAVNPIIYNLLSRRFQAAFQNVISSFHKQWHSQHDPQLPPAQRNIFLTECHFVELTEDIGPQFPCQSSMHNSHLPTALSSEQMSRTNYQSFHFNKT
binder,measurement,setting,value
"ILQRGSGTAAVDFTKKDHTATWGRPFFLFRPRN (ends and bridges not checked, also called human NMS; NMS) [human neuromedin S]",IC50,human TGR1 [1],0.1 nM
same,"intracellular Ca ion level increase (calcium-mobilization assay, FLIPR), EC50",human TGR1 [2],0.091 nM
same,"intracellular Ca ion level increase (calcium-mobilization assay, FLIPR), EC50",human FM-3 [3],0.065 nM
same,IC50,human FM-3 [4],1.2 nM
